Source: article doi:10.1101/2024.10.30.621104 (bioRxiv, 2024)

Target: the molecule itself
Experiment: single-molecule photobleaching step counting

B1: HSV-1 origin binding protein UL9 labelled at its C-terminus with Atto647N through a ybbR-tag (enzyme, Herpes simplex virus type 1, UniProt P10193 1-851, looked up)
chain: MPFVGGAESGDPLGAGRPIGDDECEQYTSSVSLARMLYGGDLAEWVPRVHPKTTIERQQHGPVTFPNASAPTARCVTVVRAPMGSGKTTALIRWLREAIHSPDTSVLVVSCRRSFTQTLATRFAESGLVDFVTYFSSTNYIMNDRPFHRLIVQVESLHRVGPNLLNNYDVLVLDEVMSTLGQLYSPTMQQLGRVDALMLRLLRICPRIIAMDATANAQLVDFLCGLRGEKNVHVVVGEYAMPGFSARRCLFLPRLGTELLQAALRPPGPPSGPSPDASPEARGATFFGELEARLGGGDNICIFSSTVSFAEIVARFCRQFTDRVLLLHSLTPLGDVTTWGQYRVVIYTTVVTVGLSFDPLHFDGMFAYVKPMNYGPDMVSVYQSLGRVRTLRKGELLIYMDGSGARSEPVFTPMLLNHVVSSCGQWPAQFSQVTNLLCRRFKGRCDASACDTSLGRGSRIYNKFRYKHYFERCTLACLSDSLNILHMLLTLNCIRVRFWGHDDTLTPKDFCLFLRGVHFDALRAQRDLRELRCRDPEASLPAQAAETEEVGLFVEKYLRSDVAPAEIVALMRNLNSLMGRTRFIYLALLEACLRVPMATRSSAIFRRIYDHYATGVIPTINVTGELELVALPPTLNVTPVWELLCLCSTMAARLHWDSAAGGSGRTFGPDDVLDLLTPHYDRYMQLVFELGHCNVTDGLLLSEEAVKRVADALSGCPPRGSVSETDHAVALFKIIWGELFGVQMAKSTQTFPGAGRVKNLTKQTIVGLLDAHHIDHSACRTHRQLYALLMAHKREFAGARFKLRVPAWGRCLRTHSSSANPNADIILEAALSELPTEAWPMMQGAVNFSTL
modifications: Atto647N fluorophore on the C-terminus through a ybbR-tag
stoichiometry N: 2
